Measured values taken from patent US7109299B1, “Peptides and compounds that bind to the IL-5 receptor” (Affymax, Inc., priority 1999, dated 2006).
Bridge positions count the residues as written; N and C are the ends. Ends that are not written are not given here. Peptide text beside a SMILES is read from it. I, II: the chains in the order shown.

Experiments:
[1] = molecular target: T1, native IL-5R α/β complex on TF-1 cells (Homo sapiens, UniProt Q01344); assay: competition binding of [125I] IL-5 to TF-1 cells; settings: read-out: IC50, inhibition of binding of [125I] IL-5 to TF-1 cells
T1 construct: endogenous in cells; host or cells: TF-1 cells
T1 sequence (Q01344 21-420): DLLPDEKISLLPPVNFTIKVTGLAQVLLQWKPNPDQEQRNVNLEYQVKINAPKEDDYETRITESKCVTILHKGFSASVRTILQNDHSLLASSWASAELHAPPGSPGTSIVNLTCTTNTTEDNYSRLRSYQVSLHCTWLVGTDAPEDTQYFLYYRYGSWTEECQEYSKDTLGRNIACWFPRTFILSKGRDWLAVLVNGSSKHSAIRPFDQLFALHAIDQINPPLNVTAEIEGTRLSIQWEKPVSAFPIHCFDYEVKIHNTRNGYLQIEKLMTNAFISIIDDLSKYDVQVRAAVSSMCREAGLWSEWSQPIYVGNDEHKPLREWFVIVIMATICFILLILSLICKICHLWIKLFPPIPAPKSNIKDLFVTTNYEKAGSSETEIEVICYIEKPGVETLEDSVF
Protocol: The ability of AF18748 to bind to the native IL-5R α/β complex on TF-1 cells was assessed in a competition binding assay (as described in McKinnon et al., J. Exp. Med 186: 121 (1997)). The binding of [^125I]

[2] = system: human eosinophils; format: cell-based
Protocol: The functional activity of AF18748 was assessed in a human eosinophil adhesion assay (following the method of […], et al, Cytokine 8:248 (1996)). […] AF18748 is therefore a potent and selective antagonist of IL-5 in a human eosinophil functional assay.

[3] = molecular target: T2, IL-5Rα ECD (Homo sapiens, UniProt Q01344); assay: biochemical
T2 sequence (Q01344 21-342 limits assumed): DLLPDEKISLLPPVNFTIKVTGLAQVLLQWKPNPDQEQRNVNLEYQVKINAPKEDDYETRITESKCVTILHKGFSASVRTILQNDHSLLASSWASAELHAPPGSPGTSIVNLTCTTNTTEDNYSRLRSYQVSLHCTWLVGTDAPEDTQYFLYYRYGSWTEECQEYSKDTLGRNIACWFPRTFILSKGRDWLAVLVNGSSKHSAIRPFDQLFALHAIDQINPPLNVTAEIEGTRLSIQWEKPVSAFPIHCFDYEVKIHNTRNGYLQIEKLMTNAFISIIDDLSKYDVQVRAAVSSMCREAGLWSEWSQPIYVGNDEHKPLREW
Protocol: Binding affinities of synthetic peptides for IL-5Rα were measured in a competition binding assay using radio-iodinated IL-5. Immulon 4 (Dynatech) microtiter wells were coated with streptavidin (Sigma) by incubating 100 μl of a 50 μg/ml solution in PBS for 30 min. at 37°. The wells were blocked with 200 μl of 1% BSA in PBS for 15 min. at 37°, followed by 100 μl of biotinylated monoclonal antibody, designated mAb 179, at 5 μg/ml in PBS. Soluble IL-5Rα was then immobilized in the wells by incubating 100 μl of a solution of soluble receptor harvest diluted 1:5000 in PBS/0.1% BSA for 1 hr. at 4°. After washing away unbound receptor, 50 μl of various concentrations of test peptide diluted in PBS/0.1% BSA were added to the wells, followed by 50 μl of a fixed concentration of [^125I] IL-5 (Amersham). The binding reactions were incubated at 4° C. for 2 hr, then washed with PBS to remove unbound [^125I] IL-5. Bound [^125I] IL-5 was determined by gamma counting. Total binding was defined by the amount of [^125I] IL-5 bound in the absence of any competitor. Non-specific binding was defined by the amount of [^125I] IL-5 bound in the presence of 30 nM IL-5. Peptide binding data was analyzed to determine the peptide concentration required to reduce specific [^125I] IL-5 binding by 50% (IC50).

[4] = molecular target: T3, chimeric IL-5Rα/EGFR receptor (Homo sapiens, UniProt P00533+Q01344); assay: chimeric IL-5Rα/EGFR luciferase reporter cell assay in Ba/F3 cells; format: cell-based; settings: for luciferase activity of Ba/F3 cells expressing the chimera: serial dilutions, 4 hr
T3 construct: A chimeric receptor consisting of the IL-5Rα ECD fused to the transmembrane spanning and intracellular domains; expressed in transfected cells; host or cells: Ba/F3 cells with c-fos enhancer/TK promoter luciferase reporter
T3 sequence (Q01344+P00533 fused, stated change not applied): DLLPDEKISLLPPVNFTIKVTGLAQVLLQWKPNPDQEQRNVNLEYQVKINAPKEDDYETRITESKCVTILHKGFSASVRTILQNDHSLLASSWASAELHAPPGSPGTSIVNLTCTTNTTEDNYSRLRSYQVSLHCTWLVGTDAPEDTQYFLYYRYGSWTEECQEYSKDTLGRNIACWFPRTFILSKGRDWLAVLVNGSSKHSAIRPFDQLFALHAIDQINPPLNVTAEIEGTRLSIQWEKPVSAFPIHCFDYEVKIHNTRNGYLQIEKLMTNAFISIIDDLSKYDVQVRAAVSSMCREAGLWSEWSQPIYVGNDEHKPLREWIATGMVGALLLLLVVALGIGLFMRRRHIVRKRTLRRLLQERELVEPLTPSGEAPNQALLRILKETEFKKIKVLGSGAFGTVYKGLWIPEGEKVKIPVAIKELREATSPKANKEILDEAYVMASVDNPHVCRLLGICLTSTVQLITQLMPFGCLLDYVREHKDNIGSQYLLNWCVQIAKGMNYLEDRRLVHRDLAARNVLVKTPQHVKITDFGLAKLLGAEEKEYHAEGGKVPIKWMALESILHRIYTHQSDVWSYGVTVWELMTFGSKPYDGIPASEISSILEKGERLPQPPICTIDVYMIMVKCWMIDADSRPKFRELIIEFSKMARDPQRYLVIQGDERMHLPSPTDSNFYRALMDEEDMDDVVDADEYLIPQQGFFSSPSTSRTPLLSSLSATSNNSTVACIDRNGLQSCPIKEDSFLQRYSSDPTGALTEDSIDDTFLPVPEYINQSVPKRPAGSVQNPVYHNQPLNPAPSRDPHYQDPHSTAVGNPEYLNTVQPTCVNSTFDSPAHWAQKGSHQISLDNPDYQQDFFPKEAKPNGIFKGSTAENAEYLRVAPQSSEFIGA
Source text: A system comprising a chimeric IL-5R-α/EGFR reported cell assay was designed to analyze receptor binding stoichiometry in a cellular context. A chimeric receptor consisting of the IL-5Rα ECD fused to the transmembrane spanning and intracellular domains of the epidermal growth factor receptor (EGFR) was constructed, and stably expressed in Ba/F3 cells that also contained a luciferase reporter gene under the transcriptional control of the c-fos enhancer and minimal thymidine kinase promoter.
In the assay, Ba/F3 cells expressing a chimeric IL-5Rα/EGFR receptor and containing a luciferase reporter gene were starved overnight of the WEHI conditioned medium in which they were maintained, then seeded into microtiter wells at a density of 10^5 cells/well. Following stimulation, the cells were incubated for 4 hr at 37° in a 5% CO2 incubator. LucLite reagent (Packard) was then added to the wells according to the manufacturer's instructions and the plates were assayed for luciferase activity by counting in a Topcount instrument (Packard). Data points represent mean±SEM for 3 separate experiments performed in triplicate. The data has been normalized to the stimulation induced by 1 μM AF18748 in each experiment.

[5] = molecular target: IL-5RαECD (Homo sapiens, UniProt Q01344); settings: AF18748 over 10 pM to 1 nM; binding decreases above 1 nM
Protocol: A “sandwich” binding assay using microvolume fluorimetry (Martens et al., Anal. Biochem., 273:20 (1999)) was used to measure the ligand dependent association of two receptor proteins. IL-5RαECD (the extracellular domain (ECD) of the human IL-5 receptor a chain) was immobilized onto 10 μm beads and incubated with soluble, fluorescently labeled IL-5Rα ECD in the presence or absence of IL-5 or peptide.
Fluorescently labeled mAb 179 was prepared using Cy5 monofunctional reactive dye (Amersham) according to the manufacturer's instructions. (As disclosed in Martens et al., supra, Cy5.5 dye is also suitable.) Fluorescent mAb179:IL-5Rα ECD complexes were formed by preincubating the labeled antibody with an equimolar amount of receptor ECD in phosphate buffered saline (PBS) for 1 hr at room temperature. Mono A 10 μm polystyrene beads (Pharmacia) were coated first with biotinylated bovine serum albumin, then sequentially with streptavidin, biotinylated mAb179, and IL-5Rα ECD. […]
The binding reactions were incubated in microtiter plates overnight at room temperature, then microvolume fluorimetry measurements of bead-associated fluorescence were made using an FMAT instrument (Perkin-Elmer).

[6] = molecular target: T4, human IL-5 receptor (Homo sapiens, UniProt Q01344); settings: HL60 subclone, sodium butyrate induced; read-out: Kd of IL-5 binding sites; cited from earlier work
T4 construct: host or cells: HL60 subclone induced towards eosinophil differentiation with sodium butyrate
T4 sequence (Q01344 21-420): T1 sequence (Q01344 21-420)
T4 sequence (P32927 17-897 partner): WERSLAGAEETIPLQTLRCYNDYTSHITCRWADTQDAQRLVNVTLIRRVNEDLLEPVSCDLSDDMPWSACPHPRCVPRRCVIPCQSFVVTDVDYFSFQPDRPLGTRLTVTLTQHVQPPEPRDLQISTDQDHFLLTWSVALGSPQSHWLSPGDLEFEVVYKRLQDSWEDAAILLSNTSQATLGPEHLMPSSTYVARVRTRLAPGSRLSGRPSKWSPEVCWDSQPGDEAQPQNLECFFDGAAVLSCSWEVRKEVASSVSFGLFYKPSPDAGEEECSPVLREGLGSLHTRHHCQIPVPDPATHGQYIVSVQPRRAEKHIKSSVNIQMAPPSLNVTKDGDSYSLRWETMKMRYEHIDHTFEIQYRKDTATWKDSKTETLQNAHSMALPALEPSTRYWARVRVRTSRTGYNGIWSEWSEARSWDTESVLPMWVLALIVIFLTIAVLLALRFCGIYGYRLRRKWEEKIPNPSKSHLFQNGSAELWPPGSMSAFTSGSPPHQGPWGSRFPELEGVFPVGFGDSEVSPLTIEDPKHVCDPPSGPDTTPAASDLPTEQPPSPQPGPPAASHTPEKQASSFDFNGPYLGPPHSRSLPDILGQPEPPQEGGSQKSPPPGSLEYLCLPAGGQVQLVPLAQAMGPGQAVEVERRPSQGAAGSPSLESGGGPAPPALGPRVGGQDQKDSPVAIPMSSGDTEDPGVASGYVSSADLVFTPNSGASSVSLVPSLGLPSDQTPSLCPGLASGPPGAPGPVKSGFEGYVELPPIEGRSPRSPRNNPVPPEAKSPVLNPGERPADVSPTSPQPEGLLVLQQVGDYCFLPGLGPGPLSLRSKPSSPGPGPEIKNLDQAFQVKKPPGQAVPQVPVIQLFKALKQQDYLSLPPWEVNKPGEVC

[7] = molecular target: T2, IL-5Rα ECD; assay: gel filtration chromatography of IL-5Rα ECD with peptide; set-up: IL-5RαECD=ECD of the human IL-5 receptor a chain
Protocol: Secondly, the ability of peptides to induce receptor dimerization was studied using gel filtration chromatography. Gel filtration chromatography was performed on a Pharmacia Smart system using a Precision Superdex 200 3.2/30 column at 25° C. with a flow rate of 10 μl/min. The buffer was 50 mM Tris pH 7.5, 0.5 M NaCl. The column was calibrated using the Biorad Gel filtration molecular weight standards which contain Thyroglobulin, 670 KD; Bovine gamma globulin, 158 KD; Chicken ovalbumin, 44 KD; Equine myoglobin, 17 KD; Vitamin B12, 1.35 KD. […] Results shown are from a single experiment, representative of three separate runs for each condition.

[8] = IL-5Rα ECD with equimolar peptide, Superdex 200

| Compound | IC50 [1] | IC50 [2] | IC50 [3] | basal level of luciferase expression in unstimulated cells [4] | effect on activation of the luciferase reporter by AF18748 ([4]; 200 pM AF18748, increasing concentrations of IL-5) | luciferase activity of Ba/F3 cells expressing the chimera [4] | association of fluorescently labeled IL-5Rα ECD to IL-5RαECD-coated beads [5] | Kd [6] | Receptor State ([7]; IL-5Rα ECD with equimolar peptide) | Calculated MW [7, 8] | Elution Volume [7, 8] | effect on elution / apparent size of IL-5Rα ECD ([7]; gel filtration) |
| --- | --- | --- | --- | --- | --- | --- | --- | --- | --- | --- | --- | --- |
| CC(C)[C@H](NC(=O)[C@H](CSSC[C@H](NC(=O)[C@@H](NC(=O)[C@H](Cc1ccc(O)cc1)NC(=O)CNC(=O)[C@H](CC(=O)O)NC(=O)CNC(=O)CNC(=O)CNC(=O)[C@@H](N)[C@@H](C)O)C(C)C)C(=O)N[C@H](C(=O)N[C@@H](CCC(=O)O)C(=O)N[C@@H](Cc1c[nH]c2ccccc12)C(=O)N[C@@H](C)C(=O)N[C@@H](CCCNC(=N)N)C(=O)N[C@H]1CSSC[C@@H](C(=O)N[C@@H](CCCCN)C(=O)O)NC(=O)[C@H]([C@@H](C)O)NC(=O)[C@@H]2CCCN2C1=O)C(C)C)NC(=O)[C@@H](NC(=O)[C@H](Cc1ccc(O)cc1)NC(=O)CNC(=O)[C@H](CC(=O)O)NC(=O)CNC(=O)CNC(=O)CNC(=O)[C@@H](N)[C@@H](C)O)C(C)C)C(=O)N[C@@H](CCC(=O)O)C(=O)N[C@@H](Cc1c[nH]c2ccccc12)C(=O)N[C@@H](C)C(=O)N[C@@H](CCCNC(=N)N)C(=O)N[C@H]1CSSC[C@@H](C(=O)N[C@@H](CCCCN)C(=O)O)NC(=O)[C@H]([C@@H](C)O)NC(=O)[C@@H]2CCCN2C1=O [AF18748] (I: H-TGGGDGYVCVEWARCPTCK-OH / II: H-TGGGDGYVCVEWARCPTCK-OH; disulfide I:9-II:9, I:15-I:18, II:15-II:18) | 0.4 ± 0.04 nM | 0.348 ± 0.067 nM | 0.78 nM | – | – | – | – | – | – | – | – | – |
| IL-5: Interleukin 5, natural ligand, disulfide linked homodimer | – | – | – | reduced basal level of luciferase expression | antagonized | no effect | did not mediate receptor association | 0.03 nM | – | – | – | – |
| VDECWRIIASHTWFCAEE (disulfide 4-15 (inferred)) [AF17121] | – | – | – | reduced basal level of luciferase expression | – | no effect | did not mediate the association of labeled receptor with the beads | – | Monomer | 89.5 kDa | 1.425 | no effect on the elution of the receptor |
